Earlier results in patent US20150246140A1, “COMPOSITIONS AND METHODS FOR MODULATING SLEEP AND WAKEFULNESS” (California Institute of Technology, priority 2014, published 2015).

What was measured:
[1] = molecular target: T1, NPR-22 (Caenorhabditis elegans, UniProt Q59E83); settings: FLP-13 peptides P1-P9, FIG. 6 legend
T1 sequence (Q59E83 1-434): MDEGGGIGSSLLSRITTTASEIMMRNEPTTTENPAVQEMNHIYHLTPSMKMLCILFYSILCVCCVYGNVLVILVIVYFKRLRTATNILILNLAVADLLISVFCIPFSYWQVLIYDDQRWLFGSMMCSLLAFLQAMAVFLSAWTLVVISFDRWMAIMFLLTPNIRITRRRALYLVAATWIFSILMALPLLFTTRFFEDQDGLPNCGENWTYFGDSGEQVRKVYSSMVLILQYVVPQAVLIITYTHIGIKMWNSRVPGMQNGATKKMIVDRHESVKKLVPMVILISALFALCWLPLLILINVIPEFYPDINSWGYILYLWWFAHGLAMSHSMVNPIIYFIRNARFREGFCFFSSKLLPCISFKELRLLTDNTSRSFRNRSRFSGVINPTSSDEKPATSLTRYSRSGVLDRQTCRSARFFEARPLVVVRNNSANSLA

[2] = tested on: A. suum muscle strips; settings: FLP-13 peptides P1-P9, FIG. 6 legend

Row | Sequence | activate calcium response via NPR-22 using the fluorescence assay [1] | effect on A. suum muscle strips [2]
1 | SPSAVPLIRF [C. elegans RFamide peptide of gene flp-13] | can activate calcium response | excitatory effect
2 | ASPSAPLIRF [C. elegans RFamide peptide of gene flp-13] | can activate calcium response | 
3 | AADGAPLIRF [C. elegans RFamide peptide of gene flp-13; P2 and P4 are repeated copies] | can activate calcium response | inhibitory effects
4 | APEASPLIRF [C. elegans RFamide peptide of gene flp-13; P3 and P5 are repeated copies] |  | inhibitory effects
5 | SAAAPLIRF [C. elegans RFamide peptide of gene flp-13] | can activate calcium response | 
6 | ASSAPLIRF [C. elegans RFamide peptide of gene flp-13] | can activate calcium response | 
